Assay results reported in patent publication US12214021B2 (CHINA AGRICULTURAL UNIVERSITY, priority 2018, dated 2025).
Marks after values point to notes of the source that are not given here.

Columns and labels:
VDR [1] = experiment: expression of VDR gene (mRNA) in MC3T3-E1 cells under LF stimulation; assay type: cell-based; details: FIG. 1
[2] = bone mineral density of the femur of mice; assay type: in vivo
Excerpt: The factors affecting bone mineral density mainly include bone mass factors and bone quality factors. Decreased bone mass is an important factor in the occurrence of common bone diseases, and bone mineral density (BMD) is an important indicator for quantifying bone mass in bone mineral metabolism. The BMD index is of great significance for the prediction of fracture risk, the early diagnosis of osteoporosis and the evaluation of intervention measures.

VDR [3] = experiment: immunohistochemistry of VDR expression in mouse kidney, colon and bone tissue; assay type: in vivo, mice; details: for VDR-positive cell rate in the kidney: FIG. 9; for VDR positive cell rate in the colon (positive cells to total cells in each crypt): FIG. 11
Excerpt: The immunohistochemical technique was used to detect the expression of VDR in kidney tissues.

[4] = contents of calcium and phosphorus in urine of mice; assay type: in vivo; details: LF1000 group
Description: In order to reflect the reabsorption of calcium and phosphorus by the kidney, the contents of calcium and phosphorus in urine were measured. In the VD-deficient groups, the calcium content in the LF1000 group is reduced by 67% compared with the control group, and the phosphorus content in the LF1000 group is reduced by 72% compared with the control group; in the VD-normal groups, the calcium content in the LF1000 group is reduced by 80% compared with the control group, and the phosphorus content in the LF1000 group is reduced by 78% compared with the control group.

VDR [5] = experiment: effect of inhibition of endocytosis (hypertonic, 4° C.) on VDR expression promoted by LF in MC3T3-E1 cells; assay type: cell-based; details: under the condition of inhibiting endocytosis (hypertonic, 4° C.), FIG. 18
Description: Studies have shown that LF can directly enter the cell and bind with DNA to regulate cell gene expression. Therefore, in order to study the effect of endocytosis, cells were stimulated with LF under culture conditions that inhibit endocytosis, and the inhibitory effect on the endocytosis of LF were detected firstly. […] Then, the promotion effect of LF on VDR was measured to analyze whether the inhibition of endocytosis affected the expression of VDR promoted by LF to determine the site of action of LF.

VDR [6] = experiment: Western blot detection of VDR expression in kidney, colon and bone tissue; assay type: in vivo, mice
Excerpt: The inventors further verified the expression of VDR in three major tissues, kidney, colon and bone using the Western blot method by extracting the tissue protein.

osteoblasts = experiment: proliferation of osteoblasts promoted by LF (MTT method); assay type: cell-based; details: FIG. 4
Description: Based on transcriptome data, the inventors verified that LF can promote the high expression of VDR at both the gene and protein levels. In order to confirm the role of this pathway in the promotion of osteoblast proliferation and differentiation by LF, the inventors first designed a VDR siRNA to achieve the purpose of transiently silencing VDR genes. The principle of siRNA is the post-transcriptional gene silencing mechanism that blocks the expression of corresponding gene. 20 μM VDR siRNA was added to osteoblasts, the proliferation rate of osteoblasts promoted by LF was detected by MTT method, and the ALP activity of osteoblasts promoted by LF was detected by enzyme-linked immunoassay.
The inventors first confirmed that LF promotes the proliferation and differentiation of osteoblasts through the regulation of the VDR pathway using the osteoblast model. Since the osteogenic effect of VDR is mainly achieved by vitamin D, in order to simulate the normal physiological environment, the inventors treated osteoblasts with both 1 nM of […] (the active form of vitamin D) and LF, and then studied the proliferation and differentiation of osteoblasts.

VDR [7] = experiment: VDR protein expression in cytoplasm and nucleus of osteoblasts after LF for different times; assay type: cell-based
Description: After verifying that LF promotes high expression of VDR at the transcription level, it is further verified at the protein level. VDR exists in the cytoplasm and nucleus, but plays a major role in the nucleus. The inventors stimulated osteoblasts for different times using LF to measure the expression of VDR in the cytoplasm and nucleus. […] In the nucleus, VDR expression began to increase at 1 hour after LF treatment, and reaches the maximum at 2-6 h.

[8] = micro-CT microstructure of trabecular bone of distal femur of mice; assay type: in vivo; details: for BV/TV / TPF / Tb · N / Tb · Sp / Tb · Th: femoral ROI, Mean ± SD, n = 8
Excerpt: According to the micro-building theory, the strength of the trabecular bone depends not only on the BMD, but also on its three-dimensional structure. In pathology, bone damage should include both “quantitative” change and “qualitative” changes. Quantitative change is the decline of BMD, while qualitative change is the change of the microstructure of trabecular bone, such as trabecular number and thickness, trabecular connection, and so on. Trabecular bone plays a major role in the microstructure. Increasing the cross structure of each trabecular bone can increase the supporting strength of the bone, but has basically no effect on bone mineral density.
The distal femur is considered a sensitive site for detecting bone health due to high cancellous bone content and rapid bone turnover. Therefore, the inventors analyzed the microstructure of trabecular bone of the distal femur using micro-CT. […] Therefore, this study mainly analyzed the microstructure of the cancellous trabecular bone of the femur in each group. The three-dimensional structure image of the trabecular bone of the ROI region of the mouse femur obtained by micro-CT reconstruction is shown in FIG. 7A and the longitudinal section is shown in FIG. 7B.
In order to quantitatively analyze the structure of the trabecular bone, the spatial structure parameters of the trabecular bone of the ROI region shown in FIG. 7 were also measured. Trabecular bone structure parameters include the followings: Bone Volume Fraction (BV/TV), which is the ratio of the total volume of voxels representing the bone structure in the ROI to the total volume of all voxels in the region, and when the bone is unhealthy, the trabecular bone is lost and the BV/TV value decreases; trabecular thickness (Tb·Th), which is the average thickness of trabecular bone, and when the bone is unhealthy, the value of Tb·Th decreases, and in porous materials, Tb·Th can be understood as thickness of the pore wall; trabecular number (Tb·N), which is the number of intersections of bone tissue and non-bone tissue within a given length, and when the bone is unhealthy, the value of Tb·N decreases; trabecular separation (Tb·Sp), which is the average width of the medullary cavity between the trabecular bones. An increase in Tb·Sp indicates an increased bone resorption and possible bone loss. Tb. Sp can be understood as porosity. The trabecular pattern factor is used to evaluate the morphology of the trabecular bone. This parameter is determined by the surface area and volume of the trabecular bone, and is a parameter obtained through 3D simulation. The smaller the TPF value, the better the connectivity between trabecular bones. BV/TV, Tb·Th, Tb·N, and Tb·Sp are parameters that can be provided by both micro-CT and bone tissue morphometry. The TPF value is a parameter based on the analysis of the three-dimensional structure of the trabecular bone, can be obtained from micro-CT analysis, but cannot be provided by the traditional two-dimensional method.

[9] = blood biochemical markers in mice after oral LF; assay type: in vivo; details: for 25-OH VD3 / Ca / P / PTH: blood, Mean ± SD, n = 8
Excerpt: Generally, the content of VD is reflected by measuring the content of 25-OH D3 in the serum. […] The contents of calcium and phosphorus in serum reflect the degree of absorption of calcium and phosphorus in the small intestine. […] However, oral administration of LF still has no effect on serum calcium and phosphorus content.

[10] = VD-normal oral-administered LF group
[11] = osteoblasts, after LF treatment
[12] = VD-deficient LF100-administered group as printed (second such column, c3)
[13] = VD-normal LF100-administered group as printed (second such column, c6)

B1: lactoferrin (protein, UniProt P02788 20-710, looked up)
Lactotransferrin: GRRRSVQWCAVSQPEATKCFQWQRNMRKVRGPPVSCIKRDSPIQCIQAIAENRADAVTLDGGFIYEAGLAPYKLRPVAAEVYGTERQPRTHYYAVAVVKKGGSFQLNELQGLKSCHTGLRRTAGWNVPIGTLRPFLNWTGPPEPIEAAVARFFSASCVPGADKGQFPNLCRLCAGTGENKCAFSSQEPYFSYSGAFKCLRDGAGDVAFIRESTVFEDLSDEAERDEYELLCPDNTRKPVDKFKDCHLARVPSHAVVARSVNGKEDAIWNLLRQAQEKFGKDKSPKFQLFGSPSGQKDLLFKDSAIGFSRVPPRIDSGLYLGSGYFTAIQNLRKSEEEVAARRARVVWCAVGEQELRKCNQWSGLSEGSVTCSSASTTEDCIALVLKGEADAMSLDGGYVYTAGKCGLVPVLAENYKSQQSSDPDPNCVDRPVEGYLAVAVVRRSDTSLTWNSVKGKKSCHTAVDRTAGWNIPMGLLFNQTGSCKFDEYFSQSCAPGSDPRSNLCALCIGDEQGENKCVPNSNERYYGYTGAFRCLAENAGDVAFVKDVTVLQNTDGNNNEAWAKDLKLADFALLCLDGKRKPVTEARSCHLAMAPNHAVVSRMDKVERLKQVLLHQQAKFGRNGSDCPDKFCLFQSETKNLLFNDNTECLARLHGKTTYEKYLGPQYVAGITNLKKCSTSPLLEACEFLRK
notes: natural glycoprotein with a molecular weight of 78 KDa in milk
- VDR expression at mRNA levels (VDR [1]): up to 30 fold
- bone mineral density of the femur, increase compared with the VD-deficient control group ([2]; VD-deficient LF100-administered group, 5 months oral, p<0.05): 5.67%
- effect on bone mineral density when VD is normal ([2]; oral administration, VD normal): further promote bone mineral density
- VDR-positive cell rate in the kidney (VDR [3]; VD-deficient LF100-administered group): 13.8%
- VDR positive cell rate in the femur (VDR [3]; VD-deficient LF100-administered group, FIG. 13): 75%
- VDR-positive cell rate in the kidney (VDR [3]; VD-deficient LF1000-administered group): 17%
- VDR positive cell rate in the colon (positive cells to total cells in each crypt) (VDR [3]; VD-deficient LF-administered group): more than 70%
- VDR-positive cell rate in the kidney (VDR [3]; VD-normal LF100-administered group): 16.3%
- VDR-positive cell rate in the kidney (VDR [3]; VD-normal LF1000-administered group): 16.5%
- VDR positive cell rate in the colon (positive cells to total cells in each crypt) (VDR [3]; [10]): ~80%
- calcium content in urine, reduction compared with the control group ([4]; VD-deficient groups): 67%
- phosphorus content in urine, reduction compared with the control group ([4]; VD-deficient groups): 72%
- calcium content in urine, reduction compared with the control group ([4]; VD-normal groups): 80%
- phosphorus content in urine, reduction compared with the control group ([4]; VD-normal groups): 78%
- promotion effect of LF on the expression of VDR in the cytoplasm and nucleus (VDR [5]): significantly inhibited
- VDR expression in the colon (VDR [6]; FIG. 15): effectively promote the expression of VDR
- VDR expression in the femur, higher than that of the control group (VDR [6]; VD deficiency, LF1000-administered group, FIG. 16): 3 times
- VDR expression in the kidney (VDR [6]; VD deficiency, oral lactoferrin, FIG. 14): effectively promote the expression of VDR
- VDR expression in the femur, higher than that of the VD normal control group (VDR [6]; VD-normal oral-administered 100 mg LF/kg BW group, FIG. 16): 2.35 times
- effect on promoting the proliferation and differentiation of osteoblasts, compared with 1.25(OH)2D3 (osteoblasts): stronger effect
- time after which VDR expression in the cytoplasm began to normalize (VDR [7]; osteoblasts treated with LF): 12 h
- time at which VDR expression in the cytoplasm reaches the maximum (VDR [7]; osteoblasts treated with LF): 4 h
- VDR expression in the cytoplasm (VDR [7]; osteoblasts treated with LF for two hours): significantly increased
- time at which VDR expression in the nucleus began to increase (VDR [7]; [11]): 1 h
- time at which VDR expression in the nucleus reaches the maximum (VDR [7]; [11]): 2 to 6 h
- trabecular bones and cavity in longitudinal section compared with the control group ([8]; VD-deficient LF-administered group, FIG. 7): obviously more trabecular bones and smaller cavity
- BV/TV of the trabecular bone compared with the VD-deficient control group and the VD-normal control group ([8]; VD-deficient groups, low-dose LF group): significantly higher
- trabecular structure parameters compared with the control group [8, 10]: comparable to the control group, except for Tb·Th value
- BV/TV [8, 12]: 0.252 ± 0.029^b %
- TPF [8, 12]: 7.290 ± 2.128^ab mm^−1
- Tb · N [8, 12]: 5.374 ± 0.501^ab mm^−1
- Tb · Sp [8, 12]: 0.136 ± 0.017^b mm
- Tb · Th [8, 12]: 0.054 ± 0.005^ab mm
- BV/TV [8, 13]: 0.28 ± 0.017^ab %
- TPF [8, 13]: 5.599 ± 0.397^b mm^−1
- Tb · N [8, 13]: 6.029 ± 0.586^a mm^−1
- Tb · Sp [8, 13]: 0.141 ± 0.020^b mm
- Tb · Th [8, 13]: 0.057 ± 0.004^ab mm
- 25-OH VD3 [9, 12]: 14.8 ± 2.39^a ng/mL
- Ca [9, 12]: 1.6 ± 0.13^a mmol/L
- P [9, 12]: 2.33 ± 0.42^a mmol/L
- PTH [9, 12]: 93.69 ± 34.61^b pg/mL
- 25-OH VD3 [9, 13]: 27.61 ± 2.93^b ng/mL
- Ca [9, 13]: 2.25 ± 0.17^b mmol/L
- P [9, 13]: 2.26 ± 0.33^a mmol/L
- PTH [9, 13]: 91.91 ± 13.10^b pg/mL
- effect on PTH content ([9]; oral 1000 mg/kg BW LF in the VD-deficient group): reduce the PTH content
- effect on serum calcium and phosphorus content ([9]; oral administration of LF): no effect
- effect on the 25-OH D3 content in serum ([9]; oral administration of LF vs corresponding control groups): no significant effect
